Measured values reported in patent US7105484 (Genentech, dated 2006).

Biological target: T1, GDNFRα (full length, GPI-linked, expressed on cells) (rat, UniProt Q62997 25-430)
T1 construct: also called GDNF receptor α; recombinant GDNFRα
T1 sequence: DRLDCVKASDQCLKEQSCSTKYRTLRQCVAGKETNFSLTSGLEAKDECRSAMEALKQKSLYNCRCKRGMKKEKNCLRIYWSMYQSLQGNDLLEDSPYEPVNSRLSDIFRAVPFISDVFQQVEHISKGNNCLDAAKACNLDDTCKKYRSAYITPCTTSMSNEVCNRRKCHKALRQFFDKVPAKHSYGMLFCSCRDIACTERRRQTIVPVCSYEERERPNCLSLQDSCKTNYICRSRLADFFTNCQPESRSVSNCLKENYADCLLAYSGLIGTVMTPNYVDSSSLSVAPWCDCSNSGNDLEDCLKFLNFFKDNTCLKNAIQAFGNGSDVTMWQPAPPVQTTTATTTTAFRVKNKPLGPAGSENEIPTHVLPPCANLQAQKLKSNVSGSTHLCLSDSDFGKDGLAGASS
Assay: competition binding of 50 pM 125I GDNF against cold GDNF on CHO cells stably expressing GDNFRα; Scatchard analysis, IGOR program
Source text: Competition binding experiments further indicate that GDNF binds specifically and reversibly to GDNFRα expressing cells. […] The IGOR program was used to determine K_d.

B1: GDNF (Glial-cell Derived Neurotrophic Factor) (ligand)
chain: SPDKQMAVLPRRERNRQAAAANPENSRGKGRRGQRGKNRGCVLTAIHLNVTDLGLGYETKEELIFRYCSGSCDAAETTYDKILKNLSRNRRLVSDKVGQACCRPIAFDDDLSFLDDNLVYHILRKHSAKRCGCI
modifications: The tracer form is 125I-iodinated, and the iodinated residues are not stated. Per our card (not shown to me), active GDNF is a disulfide-bonded homodimer; one protomer is given.
- Kd: ~0.063 nM
